For this assay, the target named is biotinylated bovine serum albumin (bovine) (UniProt P02769). In words: broad-band Mach-Zehnder interferometry (label-free, TE and TM phase shifts); multiplexed chip: mouse IgG (WGs 1, 4, 7, 10), biotinylated-BSA (WGs 2, 5, 8) and BSA blanks spotted on the sensing arms, blocked with BSA; 1 nM streptavidin in assay buffer (50 mM phosphate, pH 7.4, 10 g/L BSA) for 20 min, then 10 nM anti-mouse IgG antibody for 20 min; 20 ul/min.

Consider 1 substance from paper PMC4816226.

Chain of UniProt P02769 (P02769 25-607): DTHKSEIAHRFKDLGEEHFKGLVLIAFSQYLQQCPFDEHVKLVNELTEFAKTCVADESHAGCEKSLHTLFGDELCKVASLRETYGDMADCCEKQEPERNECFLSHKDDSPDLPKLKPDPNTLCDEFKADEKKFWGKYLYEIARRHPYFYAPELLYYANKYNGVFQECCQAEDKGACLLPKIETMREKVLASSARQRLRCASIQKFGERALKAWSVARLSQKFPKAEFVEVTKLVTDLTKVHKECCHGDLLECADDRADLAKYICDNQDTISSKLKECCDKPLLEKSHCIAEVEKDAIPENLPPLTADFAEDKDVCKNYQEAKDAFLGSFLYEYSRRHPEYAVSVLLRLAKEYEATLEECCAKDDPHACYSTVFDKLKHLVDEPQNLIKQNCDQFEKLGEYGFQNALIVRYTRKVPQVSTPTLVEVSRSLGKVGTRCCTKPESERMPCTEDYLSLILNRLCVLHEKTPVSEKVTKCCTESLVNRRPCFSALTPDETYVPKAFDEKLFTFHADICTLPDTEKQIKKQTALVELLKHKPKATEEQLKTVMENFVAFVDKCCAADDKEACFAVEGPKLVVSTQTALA

Turning to “Immunopure Streptavidin (from UniProt P22629 25-183) (natural protein)”, the TE phase shift after 20 min with 1 nM streptavidin (interferometer 2) turned out to be 4.48 radians, the TE phase shift after 20 min with 1 nM streptavidin (interferometer 5) came out at 4.56 radians, the TE phase shift after 20 min with 1 nM streptavidin (interferometer 8) came to 4.25 radians and the TM phase shift after 20 min with 1 nM streptavidin (interferometer 2) amounted to 6.02 radians. The TM phase shift after 20 min with 1 nM streptavidin (interferometer 5) was 6.87 radians and the TM phase shift after 20 min with 1 nM streptavidin (interferometer 8) worked out at 5.73 radians.
